Measurements as given in patent US10611798B2, “PAR1 and PAR2 c-tail peptides and peptide mimetics” (Hadasit Medical Research Services and Development Ltd., priority 2010, dated 2020).

Legend:
[1] = target: T1, PAR1 binding to GST-PH-Etk/Bmx (Homo sapiens, UniProt P51813); assay: Peptide competition for binding of PAR1 cell lysates to GST-PH-Etk/Bmx; conditions: 1-1000 nM applied peptide; Western blot, FIG. 7B/7C
T1 construct: made in house; host or cells: Escherichia coli (general statement on GST fusion proteins)
T1 sequence (P51813 4-111 limits assumed): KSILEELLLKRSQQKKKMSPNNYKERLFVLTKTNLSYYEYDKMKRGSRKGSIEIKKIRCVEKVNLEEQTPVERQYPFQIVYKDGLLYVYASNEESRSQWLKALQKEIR
Experimental: GST fusion protein columns. Fusion proteins were purified from transformed Escherichia coli bacteria that had been stimulated with isopropyl-β-D-thio-galactopyranoside (IPTG) at a concentration of […]. Bacteria were lysed according to published procedures, and then immobilized on glutathione Sepharose beads (Pharmacia). Briefly, MDA-MB-435 cell lysates were applied to GST-PAR1 C-tail or GST control columns. After 2 h binding periods to the designated protein/s cell lysates to the columns, a washing step was performed. The washes (×3) were carried out using a “wash buffer” including: 100 mM NaCL, 20 mM EDTA, 10 mM Tris, pH 8.0 and 1% Triton ×100. This step was performed in order to wash out all non-specific proteins, leaving the GST-PAR1-C-tail column firmly bound to targeted cell lysate proteins. Next, elution of bound proteins was performed via the addition of gel “sample buffer” and appropriate boiling. The samples were run electrophoretically on SDS-PAGE gels, followed by immunoblotting with the indicated antibodies and ECL detection.
GST-PH-Etk/Bmx. The PH domain in Etk/Bmx was bound to GST column as previously described (Chen R, et al. (2001) Nat Cell Biol. 3: 439-444). Purification of PAR1 C-tail fragments. PAR1 C-tail fragments were generated using a “thrombin cleavage capture kit” (Novagen, Madison, Wis.; Cat no. 69022-3). The enzyme used for the cleavage was biotinylated human thrombin. Briefly, the cleavage was performed according to the manufacturer instructions. Biotinylated thrombin was removed from the cleavage reaction using streptavidin agarose beads, and the cleaved peptides (e.g., wt PAR1-C-tail and Y38 1A C-tail) were isolated and loaded on a GST-Etk-PH column. After incubation for 4 h the purified fragments were applied onto the GST-PH-Etk/Bmx column and detected following gel separation and western blotting analysis using anti-PAR1 antibodies (ATAP, Santa Cruz, Calif. ).
Identification of PAR1-Etk/Bmx binding region: functional consequences. […]

MDA-MB-435 cells = assay: Wound assay (cell migration) in MDA-MB-435 cell monolayer; assay type: cell-based, human; conditions: MDA-MB-435 monolayer, 24 h, PAR1 activation; compared to control untreated cells; FIG. 9D
Experimental: In a parallel experiment, a wound assay for determining the rate of cell migration, showing the ability of the cells to fill in gaps in an MDA-MB-435 cell monolayer, was performed. MDA-MB-435 cell monolayer expressing endogenous Etk/Bmx was scratched to introduce an equal gap-area under the following conditions: control untreated cells, TFLLRNPNDK-activated or SiRNA-Etk/Bmx and TFLLRNPNDK-activated. […] Similar inhibition was obtained in the presence of the PAR1 antagonist, SCH 79797 (FIG. 9D, bottom panel), pointing to the important role of both PAR1 and Etk/Bmx in wound closure/migration of PAR1-activated MDA-MB-435 cells.

[2] = target: T2, association between Etk/Bmx and PAR1-C-tail (Homo sapiens, UniProt P51813); assay: Competition experiment: co-immunoprecipitation of HA-PAR1 and T7-tagged Etk/Bmx in MCF7 clones; assay type: cell-based; conditions: 20 minutes after activation by thrombin or TFLLRN, IP anti-HA, blot anti-T7, FIG. 22
T2 construct: expressed in transfected cells
T2 sequence (P51813 1-675): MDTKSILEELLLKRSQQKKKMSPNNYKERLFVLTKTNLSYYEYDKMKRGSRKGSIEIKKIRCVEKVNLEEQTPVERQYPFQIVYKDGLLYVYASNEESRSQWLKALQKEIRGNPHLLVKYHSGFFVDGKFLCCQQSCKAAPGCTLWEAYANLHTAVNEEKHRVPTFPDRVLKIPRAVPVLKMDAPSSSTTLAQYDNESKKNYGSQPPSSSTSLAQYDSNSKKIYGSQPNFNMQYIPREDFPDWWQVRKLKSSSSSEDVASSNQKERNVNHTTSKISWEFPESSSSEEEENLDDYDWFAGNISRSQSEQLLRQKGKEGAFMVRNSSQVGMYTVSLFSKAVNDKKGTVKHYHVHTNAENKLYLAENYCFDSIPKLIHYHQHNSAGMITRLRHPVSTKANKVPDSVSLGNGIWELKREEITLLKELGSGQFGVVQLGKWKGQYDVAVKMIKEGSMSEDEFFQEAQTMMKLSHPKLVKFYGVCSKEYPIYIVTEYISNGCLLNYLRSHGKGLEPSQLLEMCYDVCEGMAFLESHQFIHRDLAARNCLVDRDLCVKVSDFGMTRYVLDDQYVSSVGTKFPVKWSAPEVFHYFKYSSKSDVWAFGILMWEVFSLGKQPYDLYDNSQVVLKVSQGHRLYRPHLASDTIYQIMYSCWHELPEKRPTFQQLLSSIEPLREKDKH
Experimental: Western blot and immunoprecipitation analysis: Cells were activated with agonist peptide TFLLRNPNDK (SEQ ID NO: 35) for the indicated periods of time and solubilized in lysis buffer containing 10 mM Tris-HCl, pH 7.4, 150 mM NaCl, 1 mM EDTA, 1% TritonX-100, and protease inhibitors ([…] aprotinin, 1 mM phenylmethylsulfonylfluoride, and […] leupeptin) at 4° C. for 30 min. The cell lysates were subjected to centrifugation at 12,000 rpm at 4° C. for 20 min. We used 400 μg of the supernatants with anti-PAR1 (ATAP, Santa Cruz, Calif. 1 μg), anti-HA (anti-HA sc-7392; Santa Cruz, Calif.), anti-Shc or Etk/Bmx antibodies (10 μg/ml). After overnight incubation, Protein A-Sepharose beads (Amersham Pharmacia Biotech, Buckinghamshire, UK) were added to the suspension (50 μl ), which was rotated at 4° C. for 1 h. The immunocomplexes were eluted and run electrophoretically on a 10% SDS-PAGE gel, followed by transfer to an Immobilon-P membrane (Millipore). Membranes were blocked and probed with 1 μg/ml amounts of the appropriate antibodies as follows: anti-PAR1 thrombin receptor mAb, (ATAP, from Santa Cruz, 1:1000); anti-Shc (BD, 1:2000); anti-Bmx (Transduction Laboratories, 1:1000) or anti-PY (Upstate 4G10, 1:2500), suspended in 3% BSA in 10 mM Tris-HCl, pH 7.5, 100 mM NaCl, and 0.5% Tween-20. […] Immunoreactive bands were detected by enhanced chemiluminescence (ECL). […]

Row | competition for the binding of PAR1 cell lysates to GST-PH-Etk/Bmx [1] | Compound | closure of the wound / migration (MDA-MB-435 cells) | further results
1 | dose-dependent inhibition | peptide 4: 18-amino-acid peptide encompassing residues 375-392 of PAR1 C-tail (SSECQRYVYSILCCKESS; UniProt P25116 375-392, looked up, fragment) |  | 
2 | did not compete | residues 393-412: peptide representing PAR1 C-tail residues 393-412 (DPSSYNSSGQLMASKMDTCS; UniProt P25116 393-412, looked up, fragment) |  | 
3 | did not compete | peptide 5: peptide representing PAR1 C-tail 387-400 (CCKESSDPSSYNSS; UniProt P25116 387-400, looked up, fragment) |  | 
4 |  | CC(C)c1ccc(Cn2ccc3c4c(N)nc(NC5CC5)nc4ccc32)cc1 [SCH79797] | attenuated wound closure | 
5 |  | SSECQRYVYSIL (listed as Homo sapiens) [NH2-SSECQRYVYSIL-COOH] |  | association between Etk/Bmx and PAR1-C-tail in the presence of the peptide [2]: No binding is observed
6 |  | TFLLRNPNDK (listed as Homo sapiens) | Rapid closure of the wound | 
